Here are results for one molecule from patent US11370846B2, “Compositions and methods to regulate Renalase in the treatment of cancer” (Yale University, priority 2014, dated 2022).

Like-named read-outs stand apart in the source and are kept apart here.

The subject of assay [1] is BxPC3 xenografted tumors. Description: BxPC3 pancreatic xenograft in athymic nude mice. Format: in vivo, mouse. The method, then: Immunohistochemistry was performed as described previously (Guo et al., 2012 Cancer Science. 103(8):1474-80). Briefly tumor tissues were formalin-fixed, paraffin-embedded and cut into 5-μm sections on glass slides. The slides were de-paraffinized and hydrated, followed by antigen retrieval in a pressure cooker containing 10 mM sodium citrate, pH6 buffer. The sections were blocked in 3% hydrogen peroxide for 30 min and 2.5% normal horse serum in PBS/0.1% Tween20 for 1 h followed by incubation with primary antibody and isotype control IgG overnight at 4° C. […]
Xenograft tumors were established by subcutaneous injection of BxPC3 cells (2×10^6 in 100 μl of PBS, pH 7.6). […] Tumor size was measured with digital calipers and volume was calculated according to the formula (length×width)×π/2. […] These animals received no further treatments, and tumor size and volume were measured for up to 30 days.
At the end of the study, the mice were sacrificed, the tumors were excised and immediately snap-frozen in liquid nitrogen and stored at −80° C. […] Sections were examined by light microscopy and the apoptosis index was determined by counting >1000 cells in 5 randomly selected high-power fields (×200 magnification).

The subject of assay [2] is Panc1 cells. Description: FACS apoptosis and cell cycle analysis of Panc1 cells. It is filed as cell-based, human. As to conditions: 30 μg/ml. The method, then: FIG. 26A through FIG. 26E are a series of images and charts showing that inhibition of RNLS signaling induces apoptosis and cell cycle arrest. […] FIG. 26B is a chart depicting FACS analysis of Panc1 cells in culture treated with either m28-RNLS (30 μg/ml) or 100 μM etoposide (positive control) for 4 days; n=3, * indicates p<0.05. FIG. 26C is an image showing Panc1 cells treated with polyclonal ab31291 or with goat IgG as a negative control, and cells lysates probed for p38 and Bax activation by western blot. […] FIG. 26E is a chart showing the effect of m28-RNLS on cell cycle of Panc1 cells determined by FACS analysis; green curve: no treatment, purple curve: rabbit IgG, red curve: m28-RNLS 30 μg/ml.
For cell cycle analysis, cultured cells were dissociated using 10 mM EDTA, fixed with ice-cold 70% ethanol, digested with RNAse A, and stained with propidium iodide. Propidium staining was detected using a BD FACSCalibur flow cytometer (BD Biosciences, San Jose, Calif., USA), and analyzed using CellQuest software.
Apoptosis was detected and quantified as previously done (Guo et al., 2012 Cancer Science. 103(8):1474-80). […] At least 20,000 events were collected on a BD FACSCalibur flow cytometer (BD Biosciences, San Jose, Calif., USA) and analyzed using CellQuest software.

Assay [3] has as its system PDACC. Description: PDACC growth with anti-RNLS antibodies, WST-1. It is filed as cell-based, human. The settings on record: 72 hrs. The method, then:
FIG. 25A through FIG. 25E are a series of charts and images showing that inhibition of RNLS signaling is cytotoxic to cancer cells in vitro and in vivo. FIG. 25A is a chart showing relative cell viability following transient transfection of Panc1 cells using a RNLS-specific siRNA, or a non-specific control siRNA, and cell viability assayed 96 h later using the WST-1 reagent; n=6, ** indicates p<0.001. FIG. 25B is a chart showing relative cell viability when cells were treated with indicated antibodies for 72 hrs and cell viability determined using WST-1; m28-RNLS and m37-RNLS: monoclonal antibodies raised against RNLS peptide RP220, ab31291: Abcam polyclonal antibody raised against a partial sequence of RP-220; n=6, * indicates p<0.005. […] FIG. 25D is a chart showing tumor volume increase after athymic nude mice received subcutaneous injection of Panc1 cells transduced with RNLS shRNA (sh-RNLS) or control (sh-Control); tumor volume measured every […] for up to 30 days, n=6 each; * indicates p<0.05. FIG. 25E is chart showing tumor volume increase after nude mice were xenografted with BxPC3; tumor volume measured prior to treatment every 3-4 days with 2 mg/kg of either rabbit IgG as a negative control or with m28-RNLS, n=10, * indicates p<0.05.
For orientation: Tetrazolium assays rely on reduction of a dye to a coloured formazan, in cell work by metabolically active cells.

For assay [4], the system named is melanoma cells. The experiment in a line: Melanoma cell lines in culture, viability/growth. It is filed as cell-based, human. The method, then: FIG. 19A through FIG. 19D are a series of images and charts showing that inhibition of RNLS signaling is cytotoxic to melanoma cells in vitro. […] FIG. 19B comprises two charts depicting relative cell viability: Left panel: Cells were treated with indicated antibodies for 72 hrs and cell viability was determined using WST-1; m28-RNLS (also known as 1D-28-4), m37-RNLS (also known as 1D-37-10): monoclonal antibodies raised against RNLS peptide RP220; Right panel: A375.S2 cells treated with increasing doses of m28-RNLS for 72 hrs and cell viability determined with a WST-1 assay; n=6, * indicates p<0.05 and ** indicates p<0.005. FIG. 19C comprises representative photos of A375.S2, SkMe128, and SkMe15 after 72 hrs incubation with either control rabbit IgG or m28-RNLS. FIG. 19D is a chart depicting relative cell viability, comprising amino acid (AA) sequence of RNLS peptide antagonist (RP220A).
For additional studies, cell viability was determined using WST-1 reagent (Roche Diagnostics, Indianapolis, Ind., USA) according to the manufacturers' instruction. Absorbances were read using a microplate reader (Power Waves XS, BioTek Instruments, Winooski, Vt., USA).

B1: 1D-28-4: rabbit anti-renalase monoclonal raised against peptide RP-220 (antigen 1D); heavy chain SEQ ID NO:9, light chain SEQ ID NO:10 (antibody)
heavy: METGLRWLLLVAVLKGVQCQSVEESGGRLVTPGTPLTLTCTVSGFSLSSFAVGWVRQAPGKGLEYIGIISSVGITRYASWAAGRFTISKTSTTVDLKITSPTTEDTATYFCARYGYSGDVNRLDLWGQGTLVTVSSGQPKAPSVFPLAPCCGDTPSSTVTLGCLVKGYLPEPVTVTWNSGTLTNGVRTFPSVRQSSGLYSLSSVVSVTSSSQPVTCNVAHPATNTKVDKTVAPSTCSKPTCPPPELLGGPSVFIFPPKPKDTLMISRTPEVTCVVVDVSQDDPEVQFTWYINNEQVRTARPPLREQQFNSTIRVVSTLPIAHQDWLRGKEFKCKVHNKALPAPIEKTISKARGQPLEPKVYTMGPPREELSSRSVSLTCMINGFYPSDISVEWEKNGKAEDNYKTTPAVLDSDGSYFLYSKLSVPTSEWQRGDVFTCSVMHEALHNHYTQKSISRSPGK
light: MDTRAPTQLLGLLLLWLPGATFAQVLTQTASPVSAAVGGTVTINCQASQSVYDNNNLAWYQQKPGQPPKQLIYGASTLASGVSSRFKGSGSGTQFTLTISGVQCDDAATYYCLGEFSCSSADCFAFGGGTEVVVKGDPVAPTVLIFPPSADLVATGTVTIVCVANKYFPDVTVTWEVDGTTQTTGIENSKTPQNSADCTYNLSSTLTLTSTQYNSHKEYTCKVTQGTTSVVQSFNRGDC
modifications: oryctolagus cuniculus
As to B1, in assay [1] (IHC), the p21 positive cells is reported as 178.1±11.4 positive cells/high power field. Besides, in assay [1] (mouse, in vivo), the “decrease in expression of Ki67 vs IgG” value is 2.5 fold. Moreover, the “cell cycle of Panc1 cells” value in assay [2] was “pre-G2 cell cycle arrest”. In addition, the “apoptosis of Panc1 cells” value in assay [2] (4 days) is “caused apoptosis”. In assay [3], the PDACC growth result is “inhibitory effects”. The “melanoma cell growth/viability in culture” value in assay [4] is reported as “inhibits melanoma cells in culture”; in assay [4] (listed as m28-RNLS), “decreased the viability of all (total of 5) melanoma cell lines tested”.
